Assay: label from the status in PepcDB records
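Further: failed if final PepcDB status was selected cloned or expressed and not failed if soluble or beyond.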

Sequence | protein production
MMFEGIRIARQMGHNIAIVSPRVDVIIEISHRIKDAFIDEHIDVLHQSSRQQYNGHFVIATIHQLLRFKQHFDTVFVDEVDAFPLSMDPQLSNAIQLASKSNHSHIFMTATPPRHFLKQFPPEKIIKLPARFHRSPLPIPKFKYFKLKSTRKQNLLLNIFRYQINQQRFTLVFINNIEIMNKMYQQYKMDIPDLICVHSEDDLRFEKIEALRRGQHKIVFTTTILERGFTMTHLDVVVVDAGSFQQEALIQIAGRVGRKQQSPSGLVLFLHEGVTLSMILAKRNIISMNRLAIKRGWIDA | failed
MMFGRFSDRAQKMIYYAQEEAQNFKHGYVGTEHILLGILRDENGKAQSLLANMGVTIEKVRRLIEEYEGFGDSDLYKEEPPLTPRTKRLLEISLLEARNLNHNYINPEHVLLALIRESEGVAFTILGNLGVDFERLRKEILDSLS | failed
MMILAWILVIIIISVITKWVVHLLTQRQSIYLTKLVITTSCIIQFIIVFFLMKAIVHYLAQALDVFYR | failed
MMITLVLSSFLSRDNIMRGMIYLIIATILAAIGWGASKMVVMTIPGDIFIGTRFLLASFVLAPFCFKQFRTLTGKQILALSGVGLVLSFALQVWVYAVSITTSLAEGAFIMSLAMIIAPIISWILFRNKPNKAFWIALPISILGMILLTLGNGWKLEASQLGFMLSALLLSMHFVLNKRIIGAITPLLSICVQLFVVGLSGCLYASLNSHPSFEITQHAVFWFLISTIVATAIRYLAQTLGQFSVNIETASLIMILEPVWTLVLSISVLHEVVAPQKLIGGAVIFLSLFVYIKLSRRLK | failed
MMKRALTGIQASGKQHLGNYLGVMQSLIELQEQCQLFVFVADLHSITVDFQPQALKQNNFDLVRTLLAVGLDPQKACLFLQSDLLEHSMMGYLMMVQSNLGELQRMTQFKAKKAEQTRNPNGTLNIPTGLLTYPALMAGDILLYQPDIVPVGNDQKQHLELTRDLAQRIQKKFKLKLRLPQFVQNKDTNRIMDLFDPTKKMSKSSKNQNGVIYLDDPKEVVVKKIRQATTDSFNKIRFAPKTQPGVTNMLTILKALLKEPVNQSLTNQLGNDLEAYFSTKSYLDLKNALTEATVNLLVNIQRKREQISREQVFNCLQAGKNQAQATARTTLALFYDGFGLGSQNIK | not failed
MMKRARIIYNPTSGRELFKKSLPEVLQKLEQAGYEASCHATTGPGDATVAARQAVERKFDVVIAAGGDGTLNEVVNGLVGHEFRPKFGIIPVGTTNDFARAIGVPRSIEEAADIICEGKTVPLDLGRANDTYFINIAGGGRITELTYEVPSKLKTVLGQLAYYLKGIEMLPSLHPTYVEIEYDGKLLQEEITMFLITNTRSVGGFEKVAPYASINDGLFDLLVLKKGSIADLIKAATQAQRGEHINNPKVLYTQANRIKVHSPDKLMINLDGEYGGDAPMEFENMYHCLELFVPEHQEDAL | failed
MMKTQAEINKRLDAYRKGTVDSPYRVKVWTSYDNRFYPMEPGCIDVDKSFHAQCADLTIDYILWLTDNEFRIRGNAKDAINPKKNKLPEGWKIVLNRPSTVPRKGWIAVFTDGTYWEYGHIGMVYDGGNTSRFQILEQNWNGWANKKPSLRWDNYYGLTHFIVPPVAKENKAVSSSKQQAPKQKVKKASTKKALPKITKHITGYNMDKRGYNPKGVVLHNDAGGMNYKQYYNNLVNANYDRLARGIAHAYVDRTGIWEAIDESRIAWHVADGTRPGSGNHDFYGIEVNQSLRASDKEFLENEQAVFQFAAEKLKKWGLPANRNTVRLHNEFSQTSCPHRSMVLHTGLDPLYHSITEHARLKLKDYFIKQIRAYMDGKKPTSKVVVSKPGSASTPATRKDANGYRENPHGTLYKEEHATFTANANIITRYVGPFTNMPQAGILKAGQTIIYDEVMKQDGYIWVGYTAYNGKRVYLPVRKWNRETDSVGKLWGVIS | failed
MMKVLLLEDVKNLGKAGEVCEVKDGYGNNFLIANQKAKLATNEVINKYKAEVKKKAEKEALEKAQKLQMVETLQTITLTIHKKVGANGSLFGAITKEEITERLKEQHASLNLDKKDIELKHPIKSTGIYEIEVKLGSGVVGVFKIDVVAE | failed
MMLDALQANGLMQILLLTLMAGLAMPVGAALASVERIHPRWLETEVRHSVIAFGGGALLAAVALVLVPEGTANLPMVGIVVCFAGGGISFMLLDRWLAANGTPASQLVAMLSDFVPEAMALGATFSVSSEGGILLAGIIALQNIPEGFNSYRELVDATHYRGLKIVGALALMALLGPVAGALGYFLLSDAPSVVSGIMLFAAGGILYIIFQDIAPQVRLKKHWAPPLGALAGFLLGVMGEVALSG | failed
MMLNRKDADYYLGKEIMLARIRRGALIPAKVNEEHFWLLIGISSIHSEKIIQALRDYLVFGVSRKDVCERYEVNNGYFSTSLNRLSRISQAAAQMVVYYSLEHHHHHH | not failed
MMLRFSVITYTFGRLTTKKHNKVMKKLIFLFAFCLTVTNIFAQTDPSQLKKEGSDAFNAKNYPVAYAKFSEYLKQTNNQDSAIAYYCGMAADEVKKYAEAVTFFDIAIQKKFNIGNAYARKALALDAMKKTDEYVATLEEGLKVDPDNKTMIKNYGLHYLKAGIAAQKAGKVEEAEECFKKVIPLDHKTYKTNALYSLGVLCYNDGANILKKAAPLANSDADKYAAEKEKADGRFKEAIGYLEEATKVSPEDTKSKTMLSQVQAAMK | failed
MMLSMNRELIYLMLIFALLVIPRALQRFMVPAPLTCLLFGIGTMLVMGGKPHDDVIVLLSTLGISSLFLFAGLEVDLKALRRELWPLGVHLLVYSVALFCLGWLVWRYVGLTWQVAGLLALALLTPSPGFIIDSIGRLGLNEHERFWVVNKAIASELLALTVLFFVLQASDPWQMALSSGVLVALFVCLPLLFVALDRWVVPQAPGSEFSLLVMVGMIAAYATYKIGVYYLVGAFITGLIARLLHQRMPHLASEENLNAVRLFASFFVPFYFFRAGTNVSPQALSFEALGLGILITMVVLPLRIAVIWVQRRVLFGKGEDFRSSLRVSLALVPTLIFTLVLAGILRDRFSISEVLFGALLLYAAFTTLLPSLIFRLLSAWGVPSRSGDQASRETLPSSGMAG | failed
MMLTMGMLERYVLKRTMGALVGALAVLSAMVMLIAFVDIARNVGTRADASFLRLLYLTILQAPATILVLAPFIFLFGTMWAFVELNRRSELIAMRAAGISAWRFIMPAAASSFVIGLLTITLLNPLTTAMTAKFETERDRTMNGYLKEAPKGTWLRQGDDKTQIVIRARARELVDGSVRLRGVSLFVYTLNAKGVMDFTRRIEANEARLEPGFWRLSGVREATPGAGAIRSDSLSIPSNLDDRTASERFNTPQAVALWRLPATIQRTADAGFSAVPFKLRLQQDLATPLLFAAMSVLAAAFSLRLMRLGGLAMLAGSGVALGFGFFFFNELCSTLGRADVLAPFVAAWTPPTVALLVGFTLLCYTEDG | failed
MMMKIGDKLKGKITGIKPYGAFVQLENGSIGLIHISEIKTGYIDNIYQTLSVGQEVLVQVVDYDEYSQKASLSLRTLEEEKHHYQHRHRFSNNRLNIGFKPLEEHLPIWVEENLDYLKKDQDESDNQAKD | failed
MMMLNPSNGGIEGEKMKKKAKVVVIMGPTGSGKSKLAVDLASHFPVEIINADAMQIYSGLDVLTNKVTVDEQKGVPHHLLGTVSSDMEFTARDFRDFTVPLIEEIVSRNHIPVLVGGTHYYIQAVVSKFLLDDAAEDTEECCADVASVVDQDMVVESVFGRDDLSHGYELLKELDPVAANRIHPNNHRKINQYLSLHASRGVLPSKLYQGKTAENWGCINASRFDYCLICMDAETAVLDRYVEQRVDAMVDAGLLDEVYDIYKPGADYTRGLRQSIGVREFEDFLKIHLSETCAGHLTSLSNDDKVMKENLRKILNFPKDDKLRIMLEEAIDRVKLNTRRLLRRQKRRVSRLETVFGWNIHYIDATEYILSKSEESWNAQVVKPASEIIRCFLETETESGRDPTSGKSIERDLWTQYVCEACGNKILRGRHEWEHHKQGRTHRKRTTRHKNSQTYKNREVQEAEVN | failed
MMMMRAFIAENVRGIYAFDEDGKLVGKRYFTDKPEKILDGLLKGELVKDLEEFLNELREKGYDEFIFEHPELSRKAKELGFNATTEFPNLAGERLRSNPEEFLGENWFDDYYNVGVALTRMRIQEQSGARDKMVIQAIEALDDVDKVINLLVSRLREWYSLHFPELDEILPRHPQYVAFVKAIGHRDNVDEEKLRELGLSDEKIKKIIEAKEKTMGAWMDETDIAIVQHFAEEIDRLYKLRKELEDYIDKAMDDVAPNLKALVGAKLGARLISLAGGLKELAMLPSSTIQVLGAEKALFRHLRTGAKPPKHGVIYQYPAINRSPWWQRGKIARALAGKLAIAARVDYFSGEYIAEELKKELEARIKEIKEKYPRPPKRRKEERKGRKPWKEKKKKKKKKKGGRRLEHHHHHH | failed
MMMTRSWAAGGSAVLLALLLGGTITSAHAQSADLVLCDRIAADPADPDKPADVKGVTEIAPGDVSTAIKYCRVASAGSRRAMYGLGRAYAAGGQTAEALAAYRKAADKGSSAAMVELGVAYATGVGLPKDDAKARQLLERAAAAGNPRGISNLAALGGGASSDPVKTRALLAKGAESNAEAQYQLGMMMADGIGGPKDDAGARALFEKAAGQGHPGALMQMGAFAQAGRGGPKDSDAAKAYYEKAAALGNADAKAALKRSDCPYVLKDKRGNMVTNLCF | failed
MMNGENMDKQTVIGFVVLFCVLELVFYLKKLYQSMALTLAVFGIFSLLFFLLYIPVLSKKAVPYVINYFKPPHQRVREIKVGSDETTDNSIIRLKEKAKTLHPDEGNRISGRSSNSFKDSASCIITIVDDSN | failed
MMNTITNIVSYLPYLFAWFLLGYMGIVVLVYTGMLLLSVVQLKREQKLNKQEVYDDYLELTYTKPVSILVPAYNEETGIIETVRSLLSLKYPQTEIVVVNDGSTDQTLEVIIEHFQMVKVGKVIRKQIETEPIKGVYQSTIFPHLLLVDKSNGGKADALNAGLNVSKYPYFCSIDGDSILETDALLKVMKPIVTSRDDEDEVIASGGNVRIANGSDIQMGSVLSVQLAKNPLVVMQVIEYLRAFLMGRIGLSRHNMVLIISGAFSVFAKKWVMEAGGYSKKTVGEDMELVVRLHRLVKEKRLKKRITFVPDPVCWTEAPATFRVLQRQRSRWHRGLMESLWLHRGMTFNPKYGLVGTASIPYFWIVEFFGPVVELMGYLYIVFAFFFGGLYVEFALALFLLFVLYGTVFSMTAVILEGWSLKRYPKVSDMSRLMIFSLFEALWYRPLTVLWRFGAIIEALFRSKAWGEMTRKGLTKAEQKAS | failed
MMNYNTPKVSIVVPSLNSISYIRECIDSILNQTLKDIEILCIDANSTDGTLEVLKNYEKKDKRLRVIISDKKSYGYQMNLGIKEAKGEYLGIVESDDYIKTNMYERLYEIAKKNDCEVVKGDFYIFAYGKTEYVNVLRNSCEDIYNYKVNWNKDIRIFLGSDGINPIGIYRLDLLRTNQIKLNETPGASYQDNGLWFQIFALAKSIYFINEAFYMLRRDNPNSSVKSKEKVYCACEEYDFIRDFLKKHPDLEKTLAPICALHRFGNYMFTLERIDERYKLDFLKRFSQDFRKILKDKELDENLFGNINMQRINKIIENPVIYYYFSRGARARLQNQLVYRLGKVVVEAKSFNKIIKLPFLMLKICLEHNFEHKVYRSIVQFRPDLKLLPLECYLDYHEALVIKEHLSYKFGKLILLSFKGWYKGKIFILPFMLKKRYKEYKNKMILEHHHHHH | failed

Source: a protein production outcome set (Wang et al. 2014)
